Results on five molecules are retold here after patent US20230340160A1 (published 2023).

The target of assay [1] is T1, human MCSP expressed on tumor cells (human, UniProt Q6UVK1 30-2322). Nature of the assay: cell-based or functional assay.
The target of assay [2] is T1, human MCSP expressed on tumor cells. Put plainly: cell-based or functional assay. The source holds these as a separate data set.
In assay [3] the target is T2, human CD3 expressed on Jurkat cells (human, UniProt P07766 23-207).
T2 construct: CD3 complex on Jurkat cells (ATCC TIB-152); also called huCD3
T2 sequence (P07766 23-207 limits assumed): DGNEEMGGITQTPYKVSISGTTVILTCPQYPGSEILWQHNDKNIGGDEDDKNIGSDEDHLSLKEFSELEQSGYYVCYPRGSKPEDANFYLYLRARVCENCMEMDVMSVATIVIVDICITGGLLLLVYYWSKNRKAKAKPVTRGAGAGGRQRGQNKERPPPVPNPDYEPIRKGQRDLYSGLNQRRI
Nature of the assay: flow cytometry on Jurkat cells. The procedure:
(§1) Binding of the different bispecific constructs to CD3 on Jurkat cells (ATCC #TIB-152), and the respective tumor antigen on target cells, was determined by FACS. Briefly, cells were harvested, counted and checked for viability. 0.15 - 0.2 million cells per well (in PBS containing 0.1% BSA; 90 µl) were plated in a round-bottom 96-well plate and incubated with the indicated concentration of the bispecific constructs and corresponding IgG controls (10 µl) for 30 min at 4° C. For a better comparison, all constructs and IgG controls were normalized to same molarity. After the incubation, cells were centrifuged (5 min, 350 × g), washed with 150 µl PBS containing 0.1% BSA, resuspended and incubated for further 30 min at 4° C. with 12 µl/well of a FITC-or PE-conjugated secondary antibody. Bound constructs were detected using a FACSCantoII (Software FACS Diva). The “(scFv)₂” molecule was detected using a FITC-conjugated anti-His antibody (Lucerna, #RHIS-45F-Z). For all other molecules, a FITC- or PE-conjugated AffiniPure F(ab′)2 Fragment goat anti-human IgG Fcγ Fragment Specific (Jackson Immuno Research Lab # 109-096-098 / working solution 1:20, or #109-116-170 / working solution 1:80, respectively) was used. Cells were washed by addition of 120 µl/well PBS containing 0.1% BSA and centrifugation at 350 × g for 5 min. A second washing step was performed with 150 µl/well PBS containing 0.1% BSA. Unless otherwise indicated, cells were fixed with 100 µl/well fixation buffer (BD #554655) for 15 min at 4° C. in the dark, centrifuged for 6 min at 400 × g and kept in 200 µl/well PBS containing 0.1% BSA until the samples were measured with FACS CantoII. EC50 values were calculated using the GraphPad Prism software.
As a control, the equivalent maximum concentration of the corresponding IgGs and the background staining due to the labeled 2ndary antibody (goat anti-human FITC-conjugated AffiniPure F(ab′)2 Fragment, Fcγ Fragment-specific, Jackson Immuno Research Lab # 109-096-098) were assessed as well.

Assay [4] deals with T1, human MCSP expressed on tumor cells. Put plainly: flow cytometry on WM266-4 cells. The procedure: as §1
In a final experiment, binding of the “2+1 IgG Crossfab” (SEQ ID NOs 5, 23, 215, 217) and the “2+1 IgG Crossfab, inverted” (SEQ ID NOs 5, 23, 215, 219) constructs to human CD3, expressed by Jurkat cells, and to human MCSP, expressed by WM266-4 tumor cells was determined. As depicted in FIG. 58A and FIG. 58B the binding to human CD3 was reduced for the “2+1 IgG Crossfab, inverted” compared to the other construct, but the binding to human MCSP was comparably good.
On the technique in general: Flow cytometry measures light scatter and fluorescence of single cells or particles in a stream.

In assay [5] the target is T2, human CD3 expressed on Jurkat cells. Put plainly: flow cytometry on Jurkat cells, 50 nM. The procedure: as §1
(§2) In a first experiment, different bispecific constructs targeting human MCSP and human CD3 were analyzed by flow cytometry for binding to human CD3 expressed on Jurkat, human T cell leukaemia cells, or to human MCSP on Colo-38 human melanoma cells.

Assay [6] has as its target T1, human MCSP expressed on tumor cells. Put plainly: flow cytometry on Colo-38 cells, 50 nM. As for the experimental part: as §1, §2

T1 sequence (Q6UVK1 30-2322): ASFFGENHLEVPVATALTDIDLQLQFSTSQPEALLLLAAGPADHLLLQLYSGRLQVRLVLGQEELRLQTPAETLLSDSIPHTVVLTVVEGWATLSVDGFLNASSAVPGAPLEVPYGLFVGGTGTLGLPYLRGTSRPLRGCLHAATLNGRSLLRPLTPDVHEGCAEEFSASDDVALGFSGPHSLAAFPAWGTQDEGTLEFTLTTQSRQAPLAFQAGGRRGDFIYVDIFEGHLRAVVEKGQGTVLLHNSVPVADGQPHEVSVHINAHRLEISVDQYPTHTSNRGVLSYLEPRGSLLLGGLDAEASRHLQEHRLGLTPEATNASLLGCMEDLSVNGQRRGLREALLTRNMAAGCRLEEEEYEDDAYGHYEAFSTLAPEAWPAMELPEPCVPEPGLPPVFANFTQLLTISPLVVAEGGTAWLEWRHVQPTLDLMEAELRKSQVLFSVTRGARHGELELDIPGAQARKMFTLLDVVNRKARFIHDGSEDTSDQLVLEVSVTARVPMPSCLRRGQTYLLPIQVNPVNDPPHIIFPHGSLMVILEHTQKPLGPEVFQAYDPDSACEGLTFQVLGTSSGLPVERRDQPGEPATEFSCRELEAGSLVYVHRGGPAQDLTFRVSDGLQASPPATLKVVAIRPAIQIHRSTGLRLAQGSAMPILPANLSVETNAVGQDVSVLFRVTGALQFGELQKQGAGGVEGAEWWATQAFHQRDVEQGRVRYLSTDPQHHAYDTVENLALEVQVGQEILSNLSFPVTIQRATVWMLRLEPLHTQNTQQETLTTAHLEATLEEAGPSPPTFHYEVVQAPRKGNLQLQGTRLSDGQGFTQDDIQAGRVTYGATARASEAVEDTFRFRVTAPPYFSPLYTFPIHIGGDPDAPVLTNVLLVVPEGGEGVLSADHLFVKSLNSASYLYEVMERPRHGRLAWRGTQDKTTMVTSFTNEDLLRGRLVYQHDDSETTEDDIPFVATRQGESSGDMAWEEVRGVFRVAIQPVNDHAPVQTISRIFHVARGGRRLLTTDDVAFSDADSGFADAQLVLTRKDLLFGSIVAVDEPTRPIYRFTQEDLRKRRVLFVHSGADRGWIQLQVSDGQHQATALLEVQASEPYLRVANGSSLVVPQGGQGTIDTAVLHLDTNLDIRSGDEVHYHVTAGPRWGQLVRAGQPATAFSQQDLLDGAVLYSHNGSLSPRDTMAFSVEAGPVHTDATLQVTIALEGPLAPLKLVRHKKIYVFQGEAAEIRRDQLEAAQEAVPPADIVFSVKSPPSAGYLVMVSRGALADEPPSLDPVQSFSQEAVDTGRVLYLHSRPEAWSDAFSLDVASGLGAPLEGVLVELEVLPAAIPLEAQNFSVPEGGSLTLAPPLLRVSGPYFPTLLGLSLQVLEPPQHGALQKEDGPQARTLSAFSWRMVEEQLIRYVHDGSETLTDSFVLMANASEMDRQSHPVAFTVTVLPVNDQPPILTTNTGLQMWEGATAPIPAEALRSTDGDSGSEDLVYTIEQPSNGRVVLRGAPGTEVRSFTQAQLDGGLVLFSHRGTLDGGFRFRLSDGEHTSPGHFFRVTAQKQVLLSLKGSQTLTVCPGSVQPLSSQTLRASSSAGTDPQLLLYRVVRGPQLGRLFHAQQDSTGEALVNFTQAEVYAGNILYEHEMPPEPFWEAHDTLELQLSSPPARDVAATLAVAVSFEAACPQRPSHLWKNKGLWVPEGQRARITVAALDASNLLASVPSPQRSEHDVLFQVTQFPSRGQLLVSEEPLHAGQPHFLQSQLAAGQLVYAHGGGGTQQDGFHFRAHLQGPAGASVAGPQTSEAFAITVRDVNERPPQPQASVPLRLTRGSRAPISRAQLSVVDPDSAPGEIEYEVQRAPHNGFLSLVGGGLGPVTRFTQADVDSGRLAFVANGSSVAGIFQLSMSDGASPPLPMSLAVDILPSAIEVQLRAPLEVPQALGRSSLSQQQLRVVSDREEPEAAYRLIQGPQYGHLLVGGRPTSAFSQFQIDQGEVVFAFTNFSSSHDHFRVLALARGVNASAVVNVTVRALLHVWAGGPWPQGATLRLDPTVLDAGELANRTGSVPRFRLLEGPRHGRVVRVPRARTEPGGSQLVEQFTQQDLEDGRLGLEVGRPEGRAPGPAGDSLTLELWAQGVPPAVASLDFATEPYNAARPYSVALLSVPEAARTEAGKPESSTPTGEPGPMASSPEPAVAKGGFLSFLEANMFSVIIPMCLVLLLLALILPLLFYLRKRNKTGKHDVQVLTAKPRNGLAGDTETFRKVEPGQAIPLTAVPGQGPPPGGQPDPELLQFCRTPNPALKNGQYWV

B1: “2+1 IgG Crossfab” (anti-MCSP/anti-huCD3); VH/VL exchange (LC007/V9) (bispecific antibody)
heavy 1: DIQMTQSPSSLSASVGDRVTITCRASQDIRNYLNWYQQKPGKAPKLLIYYTSRLESGVPSRFSGSGSGTDYTLTISSLQPEDFATYYCQQGNTLPWTFGQGTKVEIKSSASTKGPSVFPLAPSSKSTSGGTAALGCLVKDYFPEPVTVSWNSGALTSGVHTFPAVLQSSGLYSLSSVVTVPSSSLGTQTYICNVNHKPSNTKVDKKVEPKSCGGGGSGGGGSEVQLQESGPGLVKPSQSLSLTCSVTGYSITSGYYWNWIRQFPGNKLEWMGYITYDGSNNYNPSLKNRISITRDTSKNQFFLKLNSVTTEDTATYYCADFDYWGQGTTLTVSSASTKGPSVFPLAPSSKSTSGGTAALGCLVKDYFPEPVTVSWNSGALTSGVHTFPAVLQSSGLYSLSSVVTVPSSSLGTQTYICNVNHKPSNTKVDKKVEPKSCDKTHTCPPCPAPEAAGGPSVFLFPPKPKDTLMISRTPEVTCVVVDVSHEDPEVKFNWYVDGVEVHNAKTKPREEQYNSTYRVVSVLTVLHQDWLNGKEYKCKVSNKALGAPIEKTISKAKGQPREPQVCTLPPSRDELTKNQVSLSCAVKGFYPSDIAVEWESNGQPENNYKTTPPVLDSDGSFFLVSKLTVDKSRWQQGNVFSCSVMHEALHNHYTQKSLSLSPGK
heavy 2: not shown
light 1: DIVLTQSPSSLSASLGDRVTISCSASQGIRNYLNWYQQRPDGTVKLLIYYTSSLHSGVPSRFSGSGSGTDYSLTISNLEPEDIATYYCQQYSKLPWTFGGGTKLEIKRTVAAPSVFIFPPSDEQLKSGTASVVCLLNNFYPREAKVQWKVDNALQSGNSQESVTEQDSKDSTYSLSSTLTLSKADYEKHKVYACEVTHQGLSSPVTKSFNRGEC
light 2: EVQLVESGGGLVQPGGSLRLSCAASGYSFTGYTMNWVRQAPGKGLEWVALINPYKGVSTYNQKFKDRFTISVDKSKNTAYLQMNSLRAEDTAVYYCARSGYYGDSDWYFDVWGQGTLVTVSSASVAAPSVFIFPPSDEQLKSGTASVVCLLNNFYPREAKVQWKVDNALQSGNSQESVTEQDSKDSTYSLSSTLTLSKADYEKHKVYACEVTHQGLSSPVTKSFNRGEC
notes: also called 2+1 IgG Crossfab (V9)
For the molecule B1, in assay [1], the “EC50 of killing (LDH release) of MV-3 cells, human PBMCs, E:T 10:1, 21 h” value was 0.0092 nM and the “EC50 of killing (LDH release) of WM266-4 cells, human PBMCs, E:T 10:1, 21 h” value stood at 0.0331 nM. In assay [2], the “EC50 [pM] of killing (LDH release) of MV-3 cells, human PBMCs, E:T 10:1, about 24 h” value was 10 pM and the “EC50 [pM] of killing (LDH release) of WM266-4 cells, human PBMCs, E:T 10:1, about 24 h” value turned out to be 12.4 pM. In addition, the midpoint of the response in assay [3], the EC50, lay at 1.66 nM. In addition, a half-maximal effect in assay [4] (EC50) was put at 0.95 nM.

B2: “2+1 IgG Crossfab”; CL/CH1 exchange (LC007/anti-CD3) (bispecific antibody)
heavy 1: not shown
heavy 2: EVQLQESGPGLVKPSQSLSLTCSVTGYSITSGYYWNWIRQFPGNKLEWMGYITYDGSNNYNPSLKNRISITRDTSKNQFFLKLNSVTTEDTATYYCADFDYWGQGTTLTVSSASTKGPSVFPLAPSSKSTSGGTAALGCLVKDYFPEPVTVSWNSGALTSGVHTFPAVLQSSGLYSLSSVVTVPSSSLGTQTYICNVNHKPSNTKVDKKVEPKSCDKTHTCPPCPAPEAAGGPSVFLFPPKPKDTLMISRTPEVTCVVVDVSHEDPEVKFNWYVDGVEVHNAKTKPREEQYNSTYRVVSVLTVLHQDWLNGKEYKCKVSNKALGAPIEKTISKAKGQPREPQVCTLPPSRDELTKNQVSLSCAVKGFYPSDIAVEWESNGQPENNYKTTPPVLDSDGSFFLVSKLTVDKSRWQQGNVFSCSVMHEALHNHYTQKSLSLSPGK
light 1: DIVLTQSPSSLSASLGDRVTISCSASQGIRNYLNWYQQRPDGTVKLLIYYTSSLHSGVPSRFSGSGSGTDYSLTISNLEPEDIATYYCQQYSKLPWTFGGGTKLEIKRTVAAPSVFIFPPSDEQLKSGTASVVCLLNNFYPREAKVQWKVDNALQSGNSQESVTEQDSKDSTYSLSSTLTLSKADYEKHKVYACEVTHQGLSSPVTKSFNRGEC
light 2: QAVVTQESALTTSPGETVTLTCRSSTGAVTTSNYANWVQEKPDHLFTGLIGGTNKRAPGVPARFSGSLIGDKAALTITGAQTEDEAIYFCALWYSNLWVFGGGTKLTVLSSASTKGPSVFPLAPSSKSTSGGTAALGCLVKDYFPEPVTVSWNSGALTSGVHTFPAVLQSSGLYSLSSVVTVPSSSLGTQTYICNVNHKPSNTKVDKKVEPKSC
notes: also called 2+1 IgG Crossfab (anti-CD3)
On to B2, for which the “EC50 [pM] of killing (LDH release) of MV-3 cells, human PBMCs, E:T 10:1, about 24 h” value in assay [2] amounted to 11 pM. Also, the “EC50 [pM] of killing (LDH release) of WM266-4 cells, human PBMCs, E:T 10:1, about 24 h” value in assay [2] is 11.3 pM. The concentration giving a half-maximal response (EC50) (in general, the concentration needed to bring the measured effect to its halfway point) turned out to be 10.3 nM in assay [3] and 3.1 nM in assay [4].

B3: “1+1 IgG scFab, one armed” (anti-MCSP/anti-huCD3) (bispecific antibody)
heavy 1: not shown
heavy 2: not shown
light: DIVLTQSPSSLSASLGDRVTISCSASQGIRNYLNWYQQRPDGTVKLLIYYTSSLHSGVPSRFSGSGSGTDYSLTISNLEPEDIATYYCQQYSKLPWTFGGGTKLEIKRTVAAPSVFIFPPSDEQLKSGTASVVCLLNNFYPREAKVQWKVDNALQSGNSQESVTEQDSKDSTYSLSSTLTLSKADYEKHKVYACEVTHQGLSSPVTKSFNRGEC
For the molecule B3, the binding result in assay [5] and in assay [6] was “binds” throughout.

B4: “2+1 IgG Crossfab, inverted”; CL/CH1 exchange (LC007/anti-CD3) (bispecific antibody)
heavy 1: not shown
heavy 2: EVQLQESGPGLVKPSQSLSLTCSVTGYSITSGYYWNWIRQFPGNKLEWMGYITYDGSNNYNPSLKNRISITRDTSKNQFFLKLNSVTTEDTATYYCADFDYWGQGTTLTVSSASTKGPSVFPLAPSSKSTSGGTAALGCLVKDYFPEPVTVSWNSGALTSGVHTFPAVLQSSGLYSLSSVVTVPSSSLGTQTYICNVNHKPSNTKVDKKVEPKSCDKTHTCPPCPAPEAAGGPSVFLFPPKPKDTLMISRTPEVTCVVVDVSHEDPEVKFNWYVDGVEVHNAKTKPREEQYNSTYRVVSVLTVLHQDWLNGKEYKCKVSNKALGAPIEKTISKAKGQPREPQVCTLPPSRDELTKNQVSLSCAVKGFYPSDIAVEWESNGQPENNYKTTPPVLDSDGSFFLVSKLTVDKSRWQQGNVFSCSVMHEALHNHYTQKSLSLSPGK
light 1: DIVLTQSPSSLSASLGDRVTISCSASQGIRNYLNWYQQRPDGTVKLLIYYTSSLHSGVPSRFSGSGSGTDYSLTISNLEPEDIATYYCQQYSKLPWTFGGGTKLEIKRTVAAPSVFIFPPSDEQLKSGTASVVCLLNNFYPREAKVQWKVDNALQSGNSQESVTEQDSKDSTYSLSSTLTLSKADYEKHKVYACEVTHQGLSSPVTKSFNRGEC
light 2: QAVVTQESALTTSPGETVTLTCRSSTGAVTTSNYANWVQEKPDHLFTGLIGGTNKRAPGVPARFSGSLIGDKAALTITGAQTEDEAIYFCALWYSNLWVFGGGTKLTVLSSASTKGPSVFPLAPSSKSTSGGTAALGCLVKDYFPEPVTVSWNSGALTSGVHTFPAVLQSSGLYSLSSVVTVPSSSLGTQTYICNVNHKPSNTKVDKKVEPKSC
notes: also called 2+1 IgG Crossfab, inverted (anti-CD3)
For B4, in assay [2], the “EC50 [pM] of killing (LDH release) of MV-3 cells, human PBMCs, E:T 10:1, about 24 h” value was 3 pM and the “EC50 [pM] of killing (LDH release) of WM266-4 cells, human PBMCs, E:T 10:1, about 24 h” value worked out at 7.1 pM. Further, the EC50 in assay [3] turned out to be 32 nM. Moreover, the concentration for a half-maximal effect (EC50) in assay [4] was determined as 3.4 nM.

B5: CD3/MCSP “2+1 IgG Crossfab, inverted”; CL/CH1 exchange (LC007/V9) (bispecific antibody)
heavy 1: not shown
heavy 2: EVQLQESGPGLVKPSQSLSLTCSVTGYSITSGYYWNWIRQFPGNKLEWMGYITYDGSNNYNPSLKNRISITRDTSKNQFFLKLNSVTTEDTATYYCADFDYWGQGTTLTVSSASTKGPSVFPLAPSSKSTSGGTAALGCLVKDYFPEPVTVSWNSGALTSGVHTFPAVLQSSGLYSLSSVVTVPSSSLGTQTYICNVNHKPSNTKVDKKVEPKSCDKTHTCPPCPAPEAAGGPSVFLFPPKPKDTLMISRTPEVTCVVVDVSHEDPEVKFNWYVDGVEVHNAKTKPREEQYNSTYRVVSVLTVLHQDWLNGKEYKCKVSNKALGAPIEKTISKAKGQPREPQVCTLPPSRDELTKNQVSLSCAVKGFYPSDIAVEWESNGQPENNYKTTPPVLDSDGSFFLVSKLTVDKSRWQQGNVFSCSVMHEALHNHYTQKSLSLSPGK
light 1: DIVLTQSPSSLSASLGDRVTISCSASQGIRNYLNWYQQRPDGTVKLLIYYTSSLHSGVPSRFSGSGSGTDYSLTISNLEPEDIATYYCQQYSKLPWTFGGGTKLEIKRTVAAPSVFIFPPSDEQLKSGTASVVCLLNNFYPREAKVQWKVDNALQSGNSQESVTEQDSKDSTYSLSSTLTLSKADYEKHKVYACEVTHQGLSSPVTKSFNRGEC
light 2: DIQMTQSPSSLSASVGDRVTITCRASQDIRNYLNWYQQKPGKAPKLLIYYTSRLESGVPSRFSGSGSGTDYTLTISSLQPEDFATYYCQQGNTLPWTFGQGTKVEIKSSASTKGPSVFPLAPSSKSTSGGTAALGCLVKDYFPEPVTVSWNSGALTSGVHTFPAVLQSSGLYSLSSVVTVPSSSLGTQTYICNVNHKPSNTKVDKKVEPKSC
notes: also called 2+1 IgG Crossfab, inverted (V9)
On to B5, for which, in assay [2], the “EC50 [pM] of killing (LDH release) of MV-3 cells, human PBMCs, E:T 10:1, about 24 h” value was 4.1 pM. Also, in assay [2], the “EC50 [pM] of killing (LDH release) of WM266-4 cells, human PBMCs, E:T 10:1, about 24 h” value was found to be 3.7 pM. Besides, the EC50 came to 6.1 nM in assay [3] and 0.57 nM in assay [4].
